Data on eleven molecules can be found in article PMC3154745 (Chembiochem : a European journal of chemical biology, 2011).

Read-outs that look alike come from different tables or passages of the source. Primed or numbered codes have the meaning given here. No end group written: not given here. fluorescein″ = fluorescein label at the N-terminus of the peptide; fluorescein = fluorescein group at the N-terminus

To fix the notation:
B1: HP1a-CSDΔ204 (residues 131-203) (domain or fragment, D. melanogaster, UniProt P05205 131-203, looked up)
chain: EQDTIPVSGSTGFDRGLEAEKILGASDNNGRLTFLIQFKGVDQAEMVPSSVANEKIPRMVIHFYEERLSWYSD
B2: HP1a-CSD (residues 131-206), wild type (domain or fragment, D. melanogaster, UniProt P05205 131-206, looked up)
chain: EQDTIPVSGSTGFDRGLEAEKILGASDNNGRLTFLIQFKGVDQAEMVPSSVANEKIPRMVIHFYEERLSWYSDNED
B3: HP1a-CSD S199E S202E double mutant (residues 131-206) (domain or fragment, D. melanogaster, UniProt P05205 131-206, looked up)
chain: EQDTIPVSGSTGFDRGLEAEKILGASDNNGRLTFLIQFKGVDQAEMVPSSVANEKIPRMVIHFYEERLEWYEDNED
B4: HP1a-CSD W200A (residues 131-206) (domain or fragment, D. melanogaster, UniProt P05205 131-206, looked up)
chain: EQDTIPVSGSTGFDRGLEAEKILGASDNNGRLTFLIQFKGVDQAEMVPSSVANEKIPRMVIHFYEERLSAYSDNED
B5: HP1a-CSD E195Q (residues 131-206) (domain or fragment, D. melanogaster, UniProt P05205 131-206, looked up)
chain: EQDTIPVSGSTGFDRGLEAEKILGASDNNGRLTFLIQFKGVDQAEMVPSSVANEKIPRMVIHFYQERLSWYSDNED

The target in data set [1] is B2. Briefly: NMR titration.
Data set [2] concerns the molecule itself. Put plainly: AUC.
Data set [3] concerns the molecule itself. Briefly: AUC. The source holds these as a separate data set.
The target of data set [4] is B4. Briefly: fluorescence polarisation.
Data set [5] concerns the target B1. Briefly: fluorescence polarisation. In general terms: In fluorescence polarisation assays a small probe gives low polarisation when free and higher when bound to something large.
Data set [6] concerns the target B5. Briefly: fluorescence polarisation.
Data set [7] has as its target T1, HP1a-CSD A174E (residues 131-206) (D. melanogaster, UniProt P05205 131-206, A174E).
T1 sequence (looked up): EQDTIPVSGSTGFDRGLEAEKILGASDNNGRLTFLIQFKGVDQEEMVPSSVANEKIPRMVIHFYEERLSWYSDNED
Put plainly: fluorescence polarisation.

In data set [8] the target is B3. Put plainly: fluorescence polarisation.
Data set [9] has as its target B2. Briefly: fluorescence polarisation.
In data set [10] the target is T2, HP1a-CSD I191E (residues 131-206) (D. melanogaster, UniProt P05205 131-206, I191E).
T2 sequence (looked up): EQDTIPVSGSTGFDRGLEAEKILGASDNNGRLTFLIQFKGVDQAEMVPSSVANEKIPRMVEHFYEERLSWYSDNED
Put plainly: fluorescence polarisation.

Data set [11] deals with the molecule itself. Put plainly: AUC. This is another data set of the same source.
The data set “SEC” deals with the molecule itself. Briefly: SEC. For orientation: Size exclusion chromatography separates by hydrodynamic size, large species first.
Data set [12] deals with B2. Briefly: fluorescence polarisation. This is another data set of the same source.

With TSRGSGDPRVKVFRGSSSGDY [PIWI peptide as used in NMR], the binding result in data set [1] is “binds”.

As a reminder, the Kd is the concentration at which binding is half-saturated. Low readings indicate tighter binding, high ones weaker binding. Turning to B1, in the data set “AUC [2]”, the affinity, expressed as Kd, was 2 ± 0.2 µM.

For B2, the figures for the Kd in the data set “AUC [3]” and in “AUC [2]” were 1.6 ± 0.4 µM and 3 ± 0.2 µM, respectively.

As to fluorescein-QNISPRKLSVKINRRPYNKWLR [HP2 peptide Cys to Ser mutant (LSVKI), N-terminal fluorescein], the Kd in data set [4] was greater than 500 µM; in data set [5], 4.9 ± 0.6 µM; in data set [6], 3.7 ± 0.4 µM; in [7], 1.26 ± 0.12 µM; in [8], 0.044 ± 0.007 µM; in data set [9], 0.3 ± 0.02 µM. The molecule further returned an equilibrium dissociation constant (Kd) in [10] greater than 400 µM.

For B3, the Kd in “AUC [2]” turned out to be 19 ± 1 µM.

One may read the stoichiometry N as the number of molecules, sites or subunits per partner or assembly. In the case of B4, in the data set “AUC [11]”, binding was put at a Kd of 5.8 ± 0.6 µM. The “stoichiometry N” value in “SEC” was 2.

As to B5, the Kd in “AUC [2]” came out at 4.3 ± 0.4 µM.

In the case of fluorescein-TSRGSGDPRVKVFRGSSSGDY [PIWI peptide, N-terminal fluorescein], the Kd in data set [4] was greater than 2000 µM; in data set [5] it was 60 ± 2 µM; in data set [6], 97 ± 12 µM; in data set [7], 101 ± 6 µM; in data set [8], 1.7 ± 0.1 µM; in data set [9], 20 ± 0.5 µM. This molecule also showed a Kd in [10] greater than 2000 µM.

Molecule {fluorescein″}-QNISPRKLCVKINRRPYNKWLR [HP2 peptide wild type (LCVKI), N-terminal fluorescein] showed a Kd in data set [9] of 0.14 ± 0.07 µM.

As to {fluorescein″}-PATTSPLVVLSNQLPLNSVAASY [AF10 peptide, N-terminal fluorescein], the binding result in data set [12] is recorded as “binds”.

For {fluorescein″}-SEGRRLYPLLPRISPQTALSIVANDLAESD [CG15356 peptide, N-terminal fluorescein], in data set [12], the binding result is given as “binds”.
